From article PMC3834822

Biological target: full-length ParE-ParC55 fusion protein of S. pneumoniae topoisomerase IV (Streptococcus pneumoniae) (UniProt Q59961)
Assay: crystal structure; full-length ParE-ParC55 fusion protein with 34 bp V-site DNA (1:2.2 protein:DNA), MgCl2; sitting drop, 50 mM sodium citrate pH 5.0, 4-7% isopropanol; space group P4(2)2(1)2, 3.7 Å; no ATP

full-length ParE-ParC55 fusion protein of S. pneumoniae topoisomerase IV (from UniProt Q59961 1-647; P72525 1-488) (enzyme)
stoichiometry N: 2
